This passage reports normalised SPOT signal, Boehringer light units (BLU); mean over the file's lines of this peptide results from article PMC314469, “Protein Interaction Networks by Proteome Peptide Scanning” (PLoS Biology, 2004).

The target in this assay is Sho1 SH3 (SHO1_YEAST), P40073. The assay is described as follows: SPOT array.
Sho1 SH3 (SHO1_YEAST), P40073, sequence (P40073 295-366): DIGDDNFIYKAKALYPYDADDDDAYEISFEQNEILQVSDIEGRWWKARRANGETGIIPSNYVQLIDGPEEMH
For the molecule TRRPHHPLKQQSTN [34-47 Hypothetical ORF], the normalised SPOT signal, Boehringer light units (BLU); mean over the file's lines of this peptide was 177.

For STSPPRPKRIVVAI [48-61 Phenylacrylic acid decarboxylase], the normalised SPOT signal, Boehringer light units (BLU); mean over the file's lines of this peptide was determined as 115.

Molecule SNFPDFPLKKYLKN [333-346 Hypothetical ORF] gave a normalised SPOT signal, Boehringer light units (BLU); mean over the file's lines of this peptide of 115.

The molecule SNSPISPHKLIYKN [473-486 positive transcriptional regulator of ADH2 and peroxisomal protein genes] came in with a normalised SPOT signal, Boehringer light units (BLU); mean over the file's lines of this peptide of 86.9.

The molecule TPAPNLPEKTRLAL [872-885 Urea amidolyase (contains urea carboxylase and allophanate hydrolase)] had a normalised SPOT signal, Boehringer light units (BLU); mean over the file's lines of this peptide of 60.9.

Molecule TKVPSKPDRNSKIL [463-476 global regulator of transcription] displayed a normalised SPOT signal, Boehringer light units (BLU); mean over the file's lines of this peptide of 132.

The molecule SSIPPNPGKTAKPI [108-121 " Probable transcription-associated factor protein, probable -transducin type"] yielded a normalised SPOT signal, Boehringer light units (BLU); mean over the file's lines of this peptide of 121.

Molecule SSRPTSPVRKARST [28-41 (putative) cell cycle exonuclease] displayed a normalised SPOT signal, Boehringer light units (BLU); mean over the file's lines of this peptide of 102.

In the case of SSTPTTPERPKRKS [758-771 Hypothetical ORF], the normalised SPOT signal, Boehringer light units (BLU); mean over the file's lines of this peptide stood at 214.

With SRKPPIPAKQHVKK [547-560 Ubiquitin-specific protease], the normalised SPOT signal, Boehringer light units (BLU); mean over the file's lines of this peptide worked out at 1010.

THAPTTPNRTSPNR [507-520 serine/threonine protein kinase]: the normalised SPOT signal, Boehringer light units (BLU); mean over the file's lines of this peptide was determined as 60.5.

Regarding SMYPGLPSRLEKEL [307-320 actin-related protein], the normalised SPOT signal, Boehringer light units (BLU); mean over the file's lines of this peptide came out at 334.

For TSTPPLPRRRATTS [247-260 Glycine-threonine-serine repeat protein], the normalised SPOT signal, Boehringer light units (BLU); mean over the file's lines of this peptide was found to be 366.

With TTAPRGPKKAQPAQ [176-189 transcriptional activator of the SKN7 mediated 'two-component' regulatory system], the normalised SPOT signal, Boehringer light units (BLU); mean over the file's lines of this peptide stood at 45.2.

Molecule VDPPFMPFRDAGYS [120-133 soluble tyrosine-specific protein phosphatase] came in with a normalised SPOT signal, Boehringer light units (BLU); mean over the file's lines of this peptide of -0.

Regarding SNSPQIPKKKVKDQ [1825-1838 Hypothetical ORF], the normalised SPOT signal, Boehringer light units (BLU); mean over the file's lines of this peptide was determined as 67.2.

Molecule TNPPIDPIREANVM [572-585 Glutamate synthase (NADPH)] had a normalised SPOT signal, Boehringer light units (BLU); mean over the file's lines of this peptide of 0.

In turn, TEVPSKPKKPSKTE [568-581 negative regulator of prp genes] showed a normalised SPOT signal, Boehringer light units (BLU); mean over the file's lines of this peptide of 79.6.

SSQPRPPPRPQQNP [71-84 Hypothetical ORF] returned a normalised SPOT signal, Boehringer light units (BLU); mean over the file's lines of this peptide of 83.4.

Molecule TNYPVNPEKHEMDK [1667-1680 GTPase activating protein] came in with a normalised SPOT signal, Boehringer light units (BLU); mean over the file's lines of this peptide of 29.3.

TLIPPIPEKQSIKN [210-223 Hypothetical ORF] returned a normalised SPOT signal, Boehringer light units (BLU); mean over the file's lines of this peptide of 86.6.

As to TDYPFKPPKVNFTT, the normalised SPOT signal, Boehringer light units (BLU); mean over the file's lines of this peptide came out at 74.8.

The molecule TSAPDIPPRSPNRN [54-67 Hypothetical ORF] returned a normalised SPOT signal, Boehringer light units (BLU); mean over the file's lines of this peptide of 107.

SNDPIPPPRKVSDV [457-470 transcriptional activator of the SKN7 mediated 'two-component' regulatory system] came in with a normalised SPOT signal, Boehringer light units (BLU); mean over the file's lines of this peptide of 108.

Molecule TEAPMNPLKNREQM [114-127 Centractin] showed a normalised SPOT signal, Boehringer light units (BLU); mean over the file's lines of this peptide of 132.

Molecule TDYPFKPPKISFTT gave a normalised SPOT signal, Boehringer light units (BLU); mean over the file's lines of this peptide of 178.

TDSPQLPSKDKSQE [472-485 " Anti-silencing protein, involved in transcription"] displayed a normalised SPOT signal, Boehringer light units (BLU); mean over the file's lines of this peptide of 81.7.

TEPPMNPLKNREKM [109-122 actin-related protein]: the normalised SPOT signal, Boehringer light units (BLU); mean over the file's lines of this peptide came to 138.

For the molecule TTRPAPPSKAKDVA [347-360 Hypothetical ORF], the normalised SPOT signal, Boehringer light units (BLU); mean over the file's lines of this peptide worked out at 763.

For the molecule SSMPNSPKKPVDSL [117-130 Product of gene unknown], the normalised SPOT signal, Boehringer light units (BLU); mean over the file's lines of this peptide was 63.7.

TLRPGIPLKPMLAK [384-397 DNA ligase] had a normalised SPOT signal, Boehringer light units (BLU); mean over the file's lines of this peptide of 452.

Molecule SSFPTIPLRASSGA [232-245 Hypothetical ORF] returned a normalised SPOT signal, Boehringer light units (BLU); mean over the file's lines of this peptide of 210.

As to SNNPSKPRKYKTKS [110-123 Hypothetical ORF], the normalised SPOT signal, Boehringer light units (BLU); mean over the file's lines of this peptide amounted to 332.

In turn, SSYPMNPPKISFMQ [86-99 Member of ubiquitin-conjugating protein family] yielded a normalised SPOT signal, Boehringer light units (BLU); mean over the file's lines of this peptide of 73.5.

In turn, TKTPTQPIRLQTVS [519-532 putative zinc finger protein] came in with a normalised SPOT signal, Boehringer light units (BLU); mean over the file's lines of this peptide of 40.1.

The molecule TPPPVEPLKTKDLA [102-115 Hypothetical ORF] returned a normalised SPOT signal, Boehringer light units (BLU); mean over the file's lines of this peptide of 128.

On to VDAPINPTKILTFI [375-388 Weak similarity to Pta1p (pre-tRNA processing protein)], for which the normalised SPOT signal, Boehringer light units (BLU); mean over the file's lines of this peptide was found to be 174.

In turn, SSTPIVPNRLKTVL [158-171 DNA replication helicase] registered a normalised SPOT signal, Boehringer light units (BLU); mean over the file's lines of this peptide of 161.

The molecule SLPPTPPYKAHKKK [353-366 Hypothetical ORF] returned a normalised SPOT signal, Boehringer light units (BLU); mean over the file's lines of this peptide of 544.
